According to publication PMC6565636, “Rif1 promotes association of G-quadruplex (G4) by its specific G4 binding and oligomerization activities”:

Experiments:
[1] = target: T1, Rif1 full-length (His6-Rif1-FLAG3) (Schizosaccharomyces pombe (fission …, UniProt Q96UP3 1-1400)); assay: EMSA; EMSA with oligos heat-denatured and renatured in 50 mM KCl/40% PEG200 (Fig 5: 50 mM Tris-HCl pH 7.5 with KCl, NaCl or none); gel shift buffer 40 mM Hepes-KOH pH 7.6, 50 mM KCl, 1 mM EDTA, 10% glycerol, 0.01% Triton X-100; pull-down 30 min at room temperature; +++/++/+ = >50/>16/>6% shift at 1 nM Rif1; conditions: protein: recombinant; tags: N-term His6, C-term FLAG3; label: 32P
T1 sequence: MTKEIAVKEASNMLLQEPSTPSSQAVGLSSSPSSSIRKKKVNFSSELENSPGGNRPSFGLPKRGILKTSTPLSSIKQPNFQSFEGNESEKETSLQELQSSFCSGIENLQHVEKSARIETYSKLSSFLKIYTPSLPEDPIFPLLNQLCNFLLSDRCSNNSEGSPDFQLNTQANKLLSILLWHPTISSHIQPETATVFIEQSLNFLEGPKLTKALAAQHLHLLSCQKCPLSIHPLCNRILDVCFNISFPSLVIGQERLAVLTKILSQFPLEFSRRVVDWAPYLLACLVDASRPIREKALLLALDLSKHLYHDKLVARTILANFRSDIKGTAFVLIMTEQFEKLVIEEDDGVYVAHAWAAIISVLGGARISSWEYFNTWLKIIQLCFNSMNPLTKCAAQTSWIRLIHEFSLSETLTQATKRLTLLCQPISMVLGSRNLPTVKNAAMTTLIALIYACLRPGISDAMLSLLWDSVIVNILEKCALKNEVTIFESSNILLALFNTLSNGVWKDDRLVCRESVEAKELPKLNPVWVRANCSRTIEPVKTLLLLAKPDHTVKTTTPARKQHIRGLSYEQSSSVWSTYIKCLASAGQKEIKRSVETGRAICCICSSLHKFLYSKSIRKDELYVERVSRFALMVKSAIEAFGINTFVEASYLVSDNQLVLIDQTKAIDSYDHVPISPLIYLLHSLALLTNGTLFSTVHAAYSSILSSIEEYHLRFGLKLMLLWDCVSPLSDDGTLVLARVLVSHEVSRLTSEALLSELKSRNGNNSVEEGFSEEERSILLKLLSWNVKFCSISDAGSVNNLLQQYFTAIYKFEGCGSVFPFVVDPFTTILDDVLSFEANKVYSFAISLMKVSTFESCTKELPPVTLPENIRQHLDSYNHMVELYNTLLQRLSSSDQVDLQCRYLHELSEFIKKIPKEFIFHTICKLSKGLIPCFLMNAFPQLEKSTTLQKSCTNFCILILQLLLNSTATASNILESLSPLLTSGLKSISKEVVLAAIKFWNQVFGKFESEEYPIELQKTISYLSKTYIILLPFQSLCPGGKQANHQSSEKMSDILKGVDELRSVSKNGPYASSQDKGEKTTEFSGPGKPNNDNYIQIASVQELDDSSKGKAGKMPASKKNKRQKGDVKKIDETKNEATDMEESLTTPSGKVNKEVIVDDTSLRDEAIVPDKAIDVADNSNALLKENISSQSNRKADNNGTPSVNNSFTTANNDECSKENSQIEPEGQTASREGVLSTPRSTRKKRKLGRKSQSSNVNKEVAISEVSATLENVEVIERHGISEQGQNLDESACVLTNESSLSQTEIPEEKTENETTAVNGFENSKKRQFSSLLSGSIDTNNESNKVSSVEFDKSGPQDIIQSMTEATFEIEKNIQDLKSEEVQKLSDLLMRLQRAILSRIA

[2] = target: T2, Taz1 (Schizosaccharomyces pombe (fission …, UniProt P79005 1-663)); assay: as above; conditions: protein: recombinant; tags: N-term His6, C-term FLAG3; chain copies: 2; label: 32P; blunt
T2 sequence: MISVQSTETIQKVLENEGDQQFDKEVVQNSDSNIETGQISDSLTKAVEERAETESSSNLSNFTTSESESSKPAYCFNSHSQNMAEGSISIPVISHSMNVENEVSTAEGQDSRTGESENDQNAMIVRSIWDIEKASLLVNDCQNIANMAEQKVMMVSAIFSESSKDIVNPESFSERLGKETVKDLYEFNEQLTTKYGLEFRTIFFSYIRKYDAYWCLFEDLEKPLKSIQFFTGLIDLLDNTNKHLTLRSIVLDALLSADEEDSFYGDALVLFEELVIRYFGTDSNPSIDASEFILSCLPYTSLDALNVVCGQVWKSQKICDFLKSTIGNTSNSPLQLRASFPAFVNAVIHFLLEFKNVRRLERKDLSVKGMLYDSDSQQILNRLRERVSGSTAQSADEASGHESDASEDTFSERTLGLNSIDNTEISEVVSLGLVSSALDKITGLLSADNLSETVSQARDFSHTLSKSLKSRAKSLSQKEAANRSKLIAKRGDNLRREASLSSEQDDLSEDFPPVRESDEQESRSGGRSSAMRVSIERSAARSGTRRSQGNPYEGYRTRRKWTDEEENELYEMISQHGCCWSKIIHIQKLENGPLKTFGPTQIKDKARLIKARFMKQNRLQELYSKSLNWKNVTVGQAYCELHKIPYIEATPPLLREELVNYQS

[3] = target: T1, Rif1 full-length (His6-Rif1-FLAG3); assay: EMSA; KCl; text: not bound very efficiently; EMSA with oligos heat-denatured and renatured in 50 mM KCl/40% PEG200 (Fig 5: 50 mM Tris-HCl pH 7.5 with KCl, NaCl or none); gel shift buffer 40 mM Hepes-KOH pH 7.6, 50 mM KCl, 1 mM EDTA, 10% glycerol, 0.01% Triton X-100; pull-down 30 min at room temperature; +++/++/+ = >50/>16/>6% shift at 1 nM Rif1; conditions: protein: recombinant; tags: N-term His6, C-term FLAG3; label: 32P; hybrid G4
[4] = target: T1, Rif1 full-length (His6-Rif1-FLAG3); assay: EMSA; KCl; text: poor binder; EMSA with oligos heat-denatured and renatured in 50 mM KCl/40% PEG200 (Fig 5: 50 mM Tris-HCl pH 7.5 with KCl, NaCl or none); gel shift buffer 40 mM Hepes-KOH pH 7.6, 50 mM KCl, 1 mM EDTA, 10% glycerol, 0.01% Triton X-100; pull-down 30 min at room temperature; +++/++/+ = >50/>16/>6% shift at 1 nM Rif1; conditions: protein: recombinant; tags: N-term His6, C-term FLAG3; label: 32P; hybrid G4

Binder: GGGGGGGGGG (structured_DNA) [G10]
- binding result [1]: binds

B1: Taz1BS (dsDNA)
DNA 1: TTACAGGTTACAGGTTACAGG
DNA 2: CCTGTAACCTGTAACCTGTAA
- Kd [2]: ~30 nM

Binder: TAGGGTTAGGGTTAGGGTTAGGG (structured_DNA) [Htelo1]
- binding result [3]: no binding

Binder: TAGGGTTAGGGTTAGGGTTAGGGTT (structured_DNA) [Htelo2]
- binding result [4]: no binding
